According to the DeepSol protein solubility set:

Experiment: soluble on expression in E. coli; label from the status in PepcDB or PDB records

| Sequence | soluble on expression in E. coli |
| --- | --- |
| MIEVIFLGTGGIKPTPERNVPSIAIKIGGEIILFDVGEGTLRQMEIARISPMKIKRVFITHFHGDHYLGLPALIQTMSLWKRKDPLHIYGPEGSSTFLQNLLNSGYFAPSFDILVHEISGKSRLKFKEYEVWAFEVSHGVPALGYVFKEKDKRGNFNLKKIKELGLEPGPWMKELERQKIIEINGKIVRLLEVTGPKKRGAKVVYSGDTEPCDEVIEFSRRGTLLIHEATYVNEEDRKDSYHTTIEEACEIWKKSKARKLVLFHRSPRYSFKEYKEKALSICPQAIIPRDFDRIAIEGAGDVLFKIR | soluble |
| MGSDKIHHHHHHMLIIKLSAMGDSLCLFPTVRQLALAFPGATIDWLTSNRSNPALFAELPFIRTIFVTPPSLVRALTYLGGWLFRARRYDLTIDYDQYYCISELIAGMSACSAGFRTSLKGTTFSLSVEYDPLLNEKAMFRKLTERVFATYGVSIPDYRAELPELIERFVPSAQLQTLRARLKAQGKPIVGIYPGSGANATFRRWGVGNYVALIERYKDRYAFVLLGGPDERDLQADLKDIDGVFNLIDSMSFKEVAWFLKHTIDLLVGNDGGLLHVAESQAVATVGIFGPALYRKWGSSLERSIGVEKELPCRPCLKNYLGTVPSACCLGTTACLSAISTDDVAQAMHRAVHRIHVVPIAHA | not soluble |
| MAHHHHHHMDCNTGMQLGQQFSKDVTMMHGGVPMSGAMSEQDALMVSAQVGGASPMMAAQWAQNFQQQQAMQAMRQQHEMEQAFQNSQQQQHAAVAQSGQMLGMAGPQQQQFMVQQQQQASMMNAAMMSQGMMTANMGFGMMMPRTQYQPLPNLSVLQPNQQQQQQQQLVNLAPAVQDSAWADQLSQQQWSTDYSQVQTFSAPGMEDKTVEERIKDSEFYKFMDQVKNKEVLIDEEKGELVQGPGPEVGVPEDAEYLRHWAEMEGLNMPEGVFQPPPPASAMMTPENGDPDTYIKEMDMAENDVEDWAQEYAEMQERLQKVTNNTDYPFEPNNPYMFHDFPFDEGMEMLQLGNLAEAALAFEAVCHKDSSNEKAWQILGTTQAENEKDGLAIIALNNARKLNIRNLEVHAALSVSHTNERNADAAMDSLKAWLVNHPEYEQLASVSIPPDAELDVQETFFFADPSRMREARTLYEAAIEMNPSDSQLFTNLGVLHNVAHEFDEAAECFRKAVALHPDDPKMWNKLGATLANGGHPDQALEAYNRALDINPGYVRAMYNMAVAYSNMSQYNMAARQIVKAIASQQGGTKPSGEGSIMATRNMWDLLRMTLNLMDRDDLVQLTYNEQLEPFVKEFGLEGHV | not soluble |
| MGGITMTAVVSNRDKINFHEVADHYHSNKIIFGIKFLKNWALERLASCAPVPSWRAKLHKMRGVNIGENVYIGYDVIFDRIHPEMITVGDYAEIGDRCILSAHSRGSLTTRQAYPRSIAPIKIGRGVSVNPGCIITQGVEIGDNSIIGVGSVVSRNISPNSLALGYPAKVIKKLDG | soluble |
| MFDAVKKIVLSYRVSPNRDTLSAIKAIDDVLRKLASLPDDLSFVVDGNPIYRLAQHFFAQHGISFDVRQVIGLTNEDPVSEEFRPLKQIIERFNRTFKGNYRPTHGFGAEEGSVSFVTLFVAYFNFLRPHSALEGRVPVVIPELADLPHMPARWTKLIAMAQAFLQQEAA | not soluble |
| MKSFCDNDDNNHSNTTNLLGFSLSSNMMKMGGRGGREAIYSSSTSSAATSSSSVPPQLVVGDNTSNFGVCYGSNPNGGIYSHMSVMPLRSDGSLCLMEALNRSSHSNHHQDSSPKVEDFFGTHHNNTSHKEAMDLSLDSLFYNTTHEPNTTTNFQEFFSFPQTRNHEEETRNYGNDPSLTHGGSFNVGVYGEFQQSLSLSMSPGSQSSCITGSHHHQQNQNQNHQSQNHQQISEALVETSVGFETTTMAAAKKKRGQEDVVVVGQKQIVHRKSIDTFGQRTSQYRGVTRHRWTGRYEAHLWDNSFKKEGHSRKGRQVYLGGYDMEEKAARAYDLAALKYWGPSTHTNFSAENYQKEIEDMKNMTRQEYVAHLRRKSSGFSRGASIYRGVTRHHQHGRWQARIGRVAGNKDLYLGTFGTQEEAAEAYDVAAIKFRGTNAVTNFDITRYDVDRIMSSNTLLSGELARRNNNSIVVRNTEDQTALNAVVEGGSNKEVSTPERLLSFPAIFALPQVNQKMFGSNMGGNMSPWTSNPNAELKTVALTLPQMPVFAAWADS | soluble |
| MSLKKAIAYMRFSSPGQMSGDSLNRQRRLIAEWLKVNSDYYLDTITYEDLGLSAFKGKHAQSGAFSEFLDAIEHGYILPGTTLLVESLDRLSREKVGEAIERLKLILNHGIDVITLCDNTVYNIDSLNEGHHHHHH | not soluble |
| MDSRVWLPLIGAHLLPRDISVITQMIANNNNTSISRSSTNSSKPEEKNSKKFLIERFLDDDPSPPASILSPSPKAAIPSPIINPAVEFVNGGYGVKNPLAPLISSFETTSIPCSTVSPSSLISSSKDEFQDSLTCHICGKKFGLQRLLNRHIKCHSDLKRYLCTFCGKGFNDTFDLKRHTRTHTGVRPYKCEQCEKSFTQRCSLESHLRKVHGVTHQYAYKERRSKVFVCEDCGYTDEKFEVYLSHIKVVHPFSAAYLRFTQLQKKNSSMKPEQLSKISL | not soluble |
| MSLSNWPYPRIVAHRGGGKLAPENTLASIDVGAKYGHKMIEFDAKLSKDGEIFLLHDDNLERTSNGWGVAGELNWQDLLRVDAGSWYSKMFKGEPLPLLSQVAERCREHGMMANIEIKPTTGTGPLTGKMVALAARELWAGMTPPLLSSFEIDALEAAQQAAPELPRGLLLDEWRDDWRELTARLGCVSIHLNHKLLNKARVMQLKDAGLRILVYTVNKPQRAAELLRWGVDCICTDAIDVIGPNFTAQEGHHHHHH | soluble |
| MEIHTYEKEFFDLLKRISHYSEAVALMHWDSRTGAPKNGSEDRAESIGQLSTDIFNIQTSDRMKELIDVLYERFDDLSEDTKKAVELAKKEYEENKKIPEAEYKEYVILCSKAETAWEEAKGKSDFSLFSPYLEQLIEFNKRFITYWGYQEHPYDALLDLFEPGVTVKVLDQLFAELKEAIIPLVKQVTASGNKPDTSFITKAFPKEKQKELSLYFLQELGYDFDGGRLDETVHPFATTLNRGDVRVTTRYDEKDFRTAIFGTIHECGHAIYEQNIDEALSGTNLSDGASMGIHESQSLFYENFIGRNKHFWTPYYKKIQEASPVQFKDISLDDFVRAINESKPSFIRVEADELTYPLHIIIRYEIEKAIFSNEVSVEDLPSLWNQKYQDYLGITPQTDAEGILQDVHWAGGDFGYFPSYALGYMYAAQLKQKMLEDLPEFDALLERGEFHPIKQWLTEKVHIHGKRKKPLDIIKDATGEELNVRYLIDYLSNKYSNLYLL | soluble |
| MKLNIKDVVLNYNIIGEGEPIIILHGYSVDHTIMFGCMENLFSDESRYKRIYVDLPGMGKSTSSDSIKTSDNMLDIILEFIMKVTKGENFLLVGESYGGYLSRGVVYKIREKVNGLFLICPAIIPDFNKRTVPEHVILAYDEKLMSKLNKEEAEEFSSMSVVQNEKIYLRFKEEVMSGIKLGNQDFLERLQREGYGFSFDVDKLPQKFDKPTLMLLGKQDASVGYKDAWNILDNYPRATFAVLDMAGHNLQIEQEDIFNLLGKEWISRTYREKDY | not soluble |
| MASKLLQLKSKACEASKFVSKHGTTYYKQLLDKNKMYIQEPATIEKCNELSKQLLYTRLASIPGRSESFWKEVNHVKGLWKNRADLKVEDAGIAALFGLECFAWYCAGEIVGRGFTFTGYYP | not soluble |
| MGSDKIHHHHHHVEYPLPAKNSNLVGENQYYVVPEGKLTLEAIATKFQLGLTNLLEANPGVDPFLPKPGSTLVIPHQLILPNAPREGIVINVAEMRLYYYPKGKNIVEVLPIGIGQIGKDTPEKWVTTVQRKRANPTWTPTPRIRKEYLAKGEVLPAVWPAGPDNPMGLFALYIGNLYAIHGTNATFGIGLRISQGCIRLRDADIEHLFNSVPEGTRVEFTNQPIKASEEPDGNRYLEVHQPLSRTMAEYESAEPVGLSMHRDIAKFVAHADTDSFVLKRLLEQRNGIPTRINQ | not soluble |
| MATSFYTGGGEDGDGFNPRVHARIAEREGFQLASGSEDPRTLFVANLDPAITDEFLATLFNQIGAVMKAKIIFEGLNDPYAFVEFSDHNQATLALQSHNGRELLEKEMHVTWAFEPREPGENRSKPETSRHFHVFVGDLCSEIDSTKLREAFVKFGEVSEAKIIRDNNTNKGKGYGFVSYPRREDAERAIDEMNGAWLGRRTIRTNWATRKPDEDGERGGDRGDRRGGGGGGRDRYHNQSEKTYDEIFNQAAADNTSVYVGNIANLGEDEIRRAFDRFGPINEVRTFKIQGYAFVKFETKESAARAIVQMNNADIGGQIVRCSWGKSGDSGKPSERGSGGGGGSGNYGYGYGNSGGGGGSGGPGNSQFSNFNQRPPPSGNGGSGGGSGGQNNQYWQYYSQYYNNPHLMQQWNNYWQKDGPPPPPAAAASSTGGN | not soluble |
